Experimental data: patent publication US20170165365A1 (SYMPHOGEN A S, published 2017)

T1: human HER4 antigen (human, UniProt Q15303 26-649, limits assumed)
T1 construct: Antigen coated for ELISA
T1 sequence (looked up): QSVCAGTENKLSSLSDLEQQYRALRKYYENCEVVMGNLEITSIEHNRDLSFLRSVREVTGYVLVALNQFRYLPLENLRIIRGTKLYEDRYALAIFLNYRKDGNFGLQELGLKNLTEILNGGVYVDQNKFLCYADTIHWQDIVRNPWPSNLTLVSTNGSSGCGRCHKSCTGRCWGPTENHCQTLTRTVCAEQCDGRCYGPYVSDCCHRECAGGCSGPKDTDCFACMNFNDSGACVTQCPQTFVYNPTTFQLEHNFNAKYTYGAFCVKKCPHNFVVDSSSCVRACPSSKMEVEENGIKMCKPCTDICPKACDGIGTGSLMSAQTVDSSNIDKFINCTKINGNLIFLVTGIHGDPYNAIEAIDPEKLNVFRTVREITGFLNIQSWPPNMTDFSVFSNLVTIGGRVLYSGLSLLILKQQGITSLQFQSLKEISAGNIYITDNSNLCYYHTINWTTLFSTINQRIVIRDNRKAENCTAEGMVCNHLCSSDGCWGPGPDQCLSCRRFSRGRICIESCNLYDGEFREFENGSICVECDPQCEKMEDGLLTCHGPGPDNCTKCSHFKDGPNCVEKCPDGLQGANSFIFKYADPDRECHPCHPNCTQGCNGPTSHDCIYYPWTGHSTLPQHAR

T2: murine HER4 antigen (mouse, UniProt Q61527 26-652, limits assumed)
T2 construct: In-house antigen coated for ELISA; also called mouse HER4
T2 sequence (looked up): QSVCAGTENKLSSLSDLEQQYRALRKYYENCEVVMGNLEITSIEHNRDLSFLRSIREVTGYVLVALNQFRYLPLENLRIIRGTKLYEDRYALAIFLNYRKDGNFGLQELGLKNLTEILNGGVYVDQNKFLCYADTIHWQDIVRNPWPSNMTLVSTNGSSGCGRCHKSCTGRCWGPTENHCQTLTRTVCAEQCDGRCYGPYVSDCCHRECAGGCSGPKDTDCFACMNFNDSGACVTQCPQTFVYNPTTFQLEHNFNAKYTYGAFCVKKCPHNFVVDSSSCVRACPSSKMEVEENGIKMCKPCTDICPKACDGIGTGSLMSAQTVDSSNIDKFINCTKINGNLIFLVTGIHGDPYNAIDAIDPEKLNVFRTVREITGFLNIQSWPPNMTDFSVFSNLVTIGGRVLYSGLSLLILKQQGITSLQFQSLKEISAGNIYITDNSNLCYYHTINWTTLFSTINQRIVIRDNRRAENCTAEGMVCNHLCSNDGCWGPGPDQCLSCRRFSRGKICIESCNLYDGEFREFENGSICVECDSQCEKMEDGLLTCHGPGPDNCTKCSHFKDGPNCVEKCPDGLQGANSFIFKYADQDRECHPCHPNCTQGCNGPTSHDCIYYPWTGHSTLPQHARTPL


Experiments:
[1] = target: T3, human EGFR antigen (Sino Biologicals) (human, UniProt P00533 25-645); test: ELISA, coated hu EGFR
T3 construct: Bought soluble antigen; also called human antigen
Procedure: (§1) Antibody-antigen binding was measured by ELISA with coated antigens. Human antigens were obtained from Sino Biologicals. All other antigens were produced in-house by transient expression in CHO or HEK293 cells. Chimeric and humanized antibodies, as well as an isotype control antibody, were incubated with the coated antigens at different concentrations. After wash, bound antibodies were detected by HRP-(horse radish peroxidase)-conjugated secondary antibodies.

[2] = target: T4, mouse EGFR antigen (mouse, UniProt Q01279 25-647, limits assumed); test: ELISA, coated mu EGFR
T4 construct: In-house antigen coated for ELISA; also called mouse antigen; murine EGFR
Procedure: as §1

[3] = target: T1, human HER4 antigen; test: ELISA, coated hu HER4
Procedure: as §1

[4] = target: T5, human HER2 antigen (Sino Biologicals) (human, UniProt P04626 23-652); test: ELISA, coated hu HER2
T5 construct: Bought soluble antigen; also called human antigen
Procedure: as §1

[5] = target: T2, murine HER4 antigen; test: ELISA, coated mu HER4
Procedure: as §1

[6] = target: T6, mouse HER2 antigen (mouse, UniProt P70424 23-653, limits assumed); test: ELISA, coated mu HER2
T6 construct: In-house antigen coated for ELISA; also called mouse antigen; murine HER2
T6 sequence (P70424 23-653 limits assumed): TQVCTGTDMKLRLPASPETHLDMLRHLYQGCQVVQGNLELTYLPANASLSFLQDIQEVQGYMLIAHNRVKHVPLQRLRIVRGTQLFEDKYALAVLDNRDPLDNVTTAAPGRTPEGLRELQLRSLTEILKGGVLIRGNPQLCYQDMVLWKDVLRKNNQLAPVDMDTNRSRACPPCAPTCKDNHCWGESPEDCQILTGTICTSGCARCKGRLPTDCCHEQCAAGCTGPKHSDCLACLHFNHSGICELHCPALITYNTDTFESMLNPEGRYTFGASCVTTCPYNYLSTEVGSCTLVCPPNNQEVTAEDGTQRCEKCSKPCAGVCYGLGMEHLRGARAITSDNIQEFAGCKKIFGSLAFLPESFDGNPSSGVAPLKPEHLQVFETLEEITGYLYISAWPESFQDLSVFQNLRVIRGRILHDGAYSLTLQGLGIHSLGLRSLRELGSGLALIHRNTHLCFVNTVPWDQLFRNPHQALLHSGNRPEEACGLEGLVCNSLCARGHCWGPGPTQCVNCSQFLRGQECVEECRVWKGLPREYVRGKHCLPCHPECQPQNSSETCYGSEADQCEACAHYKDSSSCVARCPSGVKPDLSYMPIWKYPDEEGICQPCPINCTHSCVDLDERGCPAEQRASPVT
Procedure: as §1

[7] = target: T7, mouse HER3 antigen (mouse, UniProt Q61526 20-641, limits assumed); test: ELISA, coated mu HER3
T7 construct: In-house antigen coated for ELISA; also called mouse antigen; murine HER3
T7 sequence (Q61526 20-641 limits assumed): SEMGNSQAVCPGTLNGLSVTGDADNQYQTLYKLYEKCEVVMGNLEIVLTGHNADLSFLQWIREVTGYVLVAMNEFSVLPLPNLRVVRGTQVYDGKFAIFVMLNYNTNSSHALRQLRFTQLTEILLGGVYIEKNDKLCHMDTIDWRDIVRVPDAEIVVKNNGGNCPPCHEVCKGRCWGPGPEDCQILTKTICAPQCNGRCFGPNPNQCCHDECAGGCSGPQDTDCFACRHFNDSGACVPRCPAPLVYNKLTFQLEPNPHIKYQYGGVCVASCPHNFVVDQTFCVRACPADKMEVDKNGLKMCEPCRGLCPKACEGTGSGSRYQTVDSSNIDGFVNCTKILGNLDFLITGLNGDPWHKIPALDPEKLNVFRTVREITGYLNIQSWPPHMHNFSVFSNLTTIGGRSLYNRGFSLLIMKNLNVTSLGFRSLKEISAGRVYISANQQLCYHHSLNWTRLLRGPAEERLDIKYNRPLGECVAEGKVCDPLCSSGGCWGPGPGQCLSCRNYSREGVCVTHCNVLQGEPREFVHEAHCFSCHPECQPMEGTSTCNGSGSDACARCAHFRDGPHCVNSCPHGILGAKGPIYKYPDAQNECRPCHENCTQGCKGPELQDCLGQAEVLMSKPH
Procedure: as §1

[8] = target: T8, cynomolgus EGFR antigen (cynomolgus monkey, UniProt A0A2K5WK39 25-645); test: ELISA, coated cy EGFR
T8 construct: In-house antigen; also called cynomolgus antigen
Procedure: as §1

[9] = target: T9, human HER3 antigen (Sino Biologicals) (human, UniProt P21860 20-643); test: SPR (ProteOn XPR36), IgG captured by anti-human Fc, soluble monovalent antigen, 1:1 fit
T9 construct: Bought soluble antigen; also called human antigen
Procedure: (§2) Kinetic binding analysis of the purified humanized variants was performed on a ProteOn™ XPR36 biosensor (BioRad, USA) employing an IgG capture assay as described by Canziani et al. (Anal. Biochem. (2004) 325:301-307) that allows for measurement of antibody affinities of whole IgG molecules against soluble antigen under monovalent conditions. Briefly, approximately 5000 resonance units (RU) of a monoclonal mouse anti-human IgG Fc antibody (GE Healthcare, Denmark) was conjugated to a GLC chip surface (BioRad, USA) according to the manufacturer's instructions, followed by capture of individual antibodies of the invention or a negative control on the anti-Fc sensor surface. […] Next, 250 μl monovalent antigen (Sino Biologicals) was injected at a flow rate of 50 μl/min in serial threefold dilutions from 100 nM stock to generate response curves. The chip surface was regenerated between cycles by stripping the captured antibody/antigen complexes off the surface with a 10-second injection of 3 M MgCl₂ (GE Healthcare, Denmark) repeated three times. Finally, binding responses were fitted to a Langmuir 1:1 binding model for calculation of the on-rate (kon or ka), off-rate (koff or kd) and affinity (KD) constants using double referencing.

[10] = target: T10, cynomolgus HER3 antigen (cynomolgus monkey, UniProt G7PIG5 20-643); test: as above
T10 construct: In-house antigen; also called cynomolgus antigen
T10 sequence (G7PIG5 entry or part of it): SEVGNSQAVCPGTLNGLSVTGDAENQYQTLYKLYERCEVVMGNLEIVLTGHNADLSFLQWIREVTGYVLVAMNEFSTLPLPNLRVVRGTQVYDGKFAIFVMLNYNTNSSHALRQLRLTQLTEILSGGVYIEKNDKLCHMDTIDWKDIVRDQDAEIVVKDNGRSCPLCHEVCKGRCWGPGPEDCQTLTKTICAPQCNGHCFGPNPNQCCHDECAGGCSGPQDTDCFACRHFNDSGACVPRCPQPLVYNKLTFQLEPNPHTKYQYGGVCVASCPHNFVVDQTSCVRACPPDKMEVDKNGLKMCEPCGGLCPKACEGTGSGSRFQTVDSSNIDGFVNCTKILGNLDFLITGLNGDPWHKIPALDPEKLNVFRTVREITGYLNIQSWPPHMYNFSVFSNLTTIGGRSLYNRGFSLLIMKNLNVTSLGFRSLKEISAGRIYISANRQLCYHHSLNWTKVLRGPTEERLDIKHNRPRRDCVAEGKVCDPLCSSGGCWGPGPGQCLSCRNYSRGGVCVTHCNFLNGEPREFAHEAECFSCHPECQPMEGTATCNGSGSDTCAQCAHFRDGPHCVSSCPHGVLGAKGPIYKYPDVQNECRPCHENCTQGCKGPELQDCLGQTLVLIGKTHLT
Procedure: as §2

[11] = target: T10, cynomolgus HER3 antigen; test: ELISA, coated cy HER3
Procedure: as §1

[12] = target: T9, human HER3 antigen (Sino Biologicals); test: ELISA, coated hu HER3
Procedure: as §1

[13] = target: T8, cynomolgus EGFR antigen; test: SPR (ProteOn XPR36), IgG captured by anti-human Fc, soluble monovalent antigen, 1:1 fit
Procedure: as §2

[14] = target: cynomolgus HER2 antigen (cynomolgus monkey); test: as above

| binding result [1] | binding result [2] | binding result [3] | binding result [4] | binding result [5] | binding result [6] | binding result [7] | binding result [8] | Kd [9] [nM] | koff [9] [s⁻¹] | kon [9] [M⁻¹ s⁻¹] | Kd [10] [nM] | koff [10] [s⁻¹] | kon [10] [M⁻¹ s⁻¹] | binding result [11] | binding result [12] | Kd [13] [nM] | Kd [14] [nM] | koff [14] [s⁻¹] | kon [14] [M⁻¹ s⁻¹] | Binder |
| --- | --- | --- | --- | --- | --- | --- | --- | --- | --- | --- | --- | --- | --- | --- | --- | --- | --- | --- | --- | --- |
| no binding (tested: 40 nM) | no binding (tested: 40 nM) | no binding (tested: 40 nM) | no binding (tested: 40 nM) | no binding (tested: 40 nM) | no binding (tested: 40 nM) | no binding (tested: 40 nM) | no binding (tested: 40 nM) | 0.18 | 0.00016 | 870000 | 0.19 | 0.00026 | 1.3e+06 | – | – | – | – | – | – | humanized anti-HER3 antibody 11052 (antibody, V domains shown) VH: QVQLQESGPGLVKPSQTLSLTCTVSGYSITSAYYWNWIRQFPGKGVEWMGYIGYSGRNTYNPSLKNRVTISRDTSKNQFSLKLSSVTAADTAVYYCSREGDYGYSDYWGQGTLVTVSS VL: DIQMTQSPSSLSASVGDRVTVTCRASQDINNYLNWYQQKPGKAVKLLIYYTSRLQSGVPSRFSGSGSGTDYTLTISSLQPEDFATYFCQQSETLPWTFGQGTKLEIK |
| – | no binding (tested: 40 nM) | no binding (tested: 40 nM) | no binding (tested: 40 nM) | no binding (tested: 40 nM) | no binding (tested: 40 nM) | no binding (tested: 40 nM) | – | – | – | – | – | – | – | no binding (tested: 40 nM) | no binding (tested: 40 nM) | 0.59 | – | – | – | chimeric anti-EGFR antibody 1277 (antibody, V domains shown, the light chain entry is full length) VH: EVQLVESGGGLVKPGESLKLSCAASGFAFSYSDMSWVRQTPEKRLEWVAYMSSAGDVTFYSDTVKGRFTISRDNAKNTLYLQVSSLKSEDTAIYYCVRHRDVAMDYWGQGTSVTVS VL: DVVMTQTPLSLPVSLGDQASISCRSSQSLVHSNGNTYLHWYLQKPGQSPKLLIYKVSNRFSGVPDRFSGSGSGTDFTLKISRVEAEDLGVYFCSQSTHVPTFGGGTKLEIKR |
| no binding (tested: 40 nM) | no binding (tested: 40 nM) | no binding (tested: 40 nM) | – | no binding (tested: 40 nM) | no binding (tested: 40 nM) | no binding (tested: 40 nM) | no binding (tested: 40 nM) | – | – | – | – | – | – | no binding (tested: 40 nM) | no binding (tested: 40 nM) | – | 2.9 | 0.0005 | 180000 | chimeric anti-HER2 antibody 4384 (antibody, V domains shown, light chain entry is full length) VH: QVQLQQPGTELVKPGASVKLSCKASGYTFTSHWMHWVKQRPGQGLEWIGNINPSNGGTNYNEKFKSRATLTVDKASSTAYMQLSSLTSEDSAVYYCARAYYDFSWFVYWGQGTLVTVS VL: DIQMTQTSSSLSASLGDRVTISCRSSQDISNYLNWYQQKPDGTVKLLMYISRLHSGVPSRFSGSGSGTEYSLTISNLEQEDIATYFCQQGNTLPLTFGAGTKLELKR |
| no binding (tested: 40 nM) | no binding (tested: 40 nM) | no binding (tested: 40 nM) | – | no binding (tested: 40 nM) | no binding (tested: 40 nM) | no binding (tested: 40 nM) | no binding (tested: 40 nM) | – | – | – | – | – | – | no binding (tested: 40 nM) | no binding (tested: 40 nM) | – | 12 | 0.00063 | 53000 | humanized anti-HER2 antibody 11145 (antibody, V domains shown) VH: EVQLVESGGGLVKPGGSLRLSCAASGFTFSSYGMSWVRQAPGKGLEWVATISGGGSYTYYPDSVKGRFTISRDIAKSSLYLQMNSLRAEDTAVYYCARKGNYGNYGKLAYWGQGTTVTVSS VL: DIQMTQSPSSLSASVGDRVTITCRASENIYSNLAWYQQKPGKAPKLLIYAATNLATGVPSRFSGSGSGTDYTLTISSLQPEDFASYYCQHFWGTPWTFGQGTKLEIK |
| no binding (tested: 40 nM) | no binding (tested: 40 nM) | no binding (tested: 40 nM) | – | no binding (tested: 40 nM) | no binding (tested: 40 nM) | no binding (tested: 40 nM) | no binding (tested: 40 nM) | – | – | – | – | – | – | no binding (tested: 40 nM) | no binding (tested: 40 nM) | – | – | – | – | humanized anti-HER2 antibody 10704 (antibody, V domains shown) VH: QVQLVQSGAEVKKPGASVKVSCKASGYTFTSHWMHWVRQAPGQGLEWMGNINPSSGGTNYNEKFKSRVTLTVDKSTSTAYMELSSLRSEDTAVYYCARAYYDFSWFVYWGQGTLVTVSS VL: DIQMTQSPSSLSASVGDRVTITCRSSQDISNYLNWYQQKPGKAVKLLMYISRLHSGVPSRFSGSGSGTDYTFTISSLQPEDIATYYCQQGNTLPLTFGGGTKVEIK |
